Reference: IntAct's records for PubMed 25910212

B1: Keratin, type II cytoskeletal 1 (Homo sapiens), P04264 (parent)
chain: MSRQFSSRSGYRSGGGFSSGSAGIINYQRRTTSSSTRRSGGGGGRFSSCGGGGGSFGAGGGFGSRSLVNLGGSKSISISVARGGGRGSGFGGGYGGGGFGGGGFGGGGFGGGGIGGGGFGGFGSGGGGFGGGGFGGGGYGGGYGPVCPPGGIQEVTINQSLLQPLNVEIDPEIQKVKSREREQIKSLNNQFASFIDKVRFLEQQNQVLQTKWELLQQVDTSTRTHNLEPYFESFINNLRRRVDQLKSDQSRLDSELKNMQDMVEDYRNKYEDEINKRTNAENEFVTIKKDVDGAYMTKVDLQAKLDNLQQEIDFLTALYQAELSQMQTQISETNVILSMDNNRSLDLDSIIAEVKAQYEDIAQKSKAEAESLYQSKYEELQITAGRHGDSVRNSKIEISELNRVIQRLRSEIDNVKKQISNLQQSISDAEQRGENALKDAKNKLNDLEDALQQAKEDLARLLRDYQELMNTKLALDLEIATYRTLLEGEESRMSGECAPNVSVSVSTSHTTISGGGSRGGGGGGYGSGGSSYGSGGGSYGSGGGGGGGRGSYGSGGSSYGSGGGSYGSGGGGGGHGSYGSGSSSGGYRGGSGGGGGGSSGGRGSGGGSSGGSIGGRGSSSGGVKSSGGSSSVKFVSTTYSGVTR
partner: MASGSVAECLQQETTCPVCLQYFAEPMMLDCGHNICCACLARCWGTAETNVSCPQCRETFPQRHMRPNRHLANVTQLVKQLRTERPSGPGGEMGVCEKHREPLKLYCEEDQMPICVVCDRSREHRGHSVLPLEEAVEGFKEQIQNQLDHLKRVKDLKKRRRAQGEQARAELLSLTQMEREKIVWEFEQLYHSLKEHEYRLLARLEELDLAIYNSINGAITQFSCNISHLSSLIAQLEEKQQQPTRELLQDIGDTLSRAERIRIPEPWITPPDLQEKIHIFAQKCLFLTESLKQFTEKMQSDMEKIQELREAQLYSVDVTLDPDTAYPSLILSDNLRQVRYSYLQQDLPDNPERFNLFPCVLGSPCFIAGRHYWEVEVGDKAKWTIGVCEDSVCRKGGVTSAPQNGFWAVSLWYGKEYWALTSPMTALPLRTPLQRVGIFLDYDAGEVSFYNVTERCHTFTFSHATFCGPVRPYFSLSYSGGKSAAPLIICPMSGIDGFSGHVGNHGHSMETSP
B2: Cyclin-dependent kinase 4 (Homo sapiens), P11802 (parent)
chain: MATSRYEPVAEIGVGAYGTVYKARDPHSGHFVALKSVRVPNGGGGGGGLPISTVREVALLRRLEAFEHPNVVRLMDVCATSRTDREIKVTLVFEHVDQDLRTYLDKAPPPGLPAETIKDLMRQFLRGLDFLHANCIVHRDLKPENILVTSGGTVKLADFGLARIYSYQMALTPVVVTLWYRAPEVLLQSTYATPVDMWSVGCIFAEMFRRKPLFCGNSEADQLGKIFDLIGLPPEDDWPRDVSLPRGAFPPRGPRPVQSVVPEMEESGAQLLLEMLTFNPHKRISAFRALQHSYLHKDEGNPE

Variants of: B1
Details: with tri27_human TRIM27, P14373

Variant	effect of a mutation on the interaction
L161P	causing an interaction

Variants of: B2
Details: with ccnd1_human CCND1, P24385
Chain of ccnd1_human CCND1, P24385 (P24385 whole entry): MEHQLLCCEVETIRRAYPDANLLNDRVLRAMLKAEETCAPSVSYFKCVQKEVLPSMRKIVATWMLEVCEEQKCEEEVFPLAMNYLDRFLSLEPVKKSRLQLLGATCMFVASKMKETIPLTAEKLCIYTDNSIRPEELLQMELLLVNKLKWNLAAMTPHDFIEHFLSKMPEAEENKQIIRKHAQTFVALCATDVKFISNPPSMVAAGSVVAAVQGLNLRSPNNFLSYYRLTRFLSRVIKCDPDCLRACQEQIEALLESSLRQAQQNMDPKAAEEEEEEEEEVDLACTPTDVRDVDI

Variant	effect of a mutation on the interaction
MATSRYEPVAEIGVGAYGTVYKARDPHSGHFVALKSVRVPNGGGGGGGLPINTVREVALLRRLEAFEHPNVVRLMDVCATSRTDREIKVTLVFEHVDQDLRTYLDKAPPPGLPAETIKDLMRQFLRGLDFLHANCIVHRDLKPENILVTSGGTVKLADFGLARIYSYQMALTPVVVTLWYRAPEVLLQSTYATPVDMWSVGCIFAEMFRRKPLFCGNSEADQLGKIFDLIGLPPEDDWPRDVSLPRGAFPPRGPRPVQSVVPEMEESGAQLLLEMLTFNPHKRISAFRALQHSYLHKDEGNPE [S52N]	with no effect
MATSRYEPVAEIGVGAYGTVYKACDPHSGHFVALKSVRVPNGGGGGGGLPISTVREVALLRRLEAFEHPNVVRLMDVCATSRTDREIKVTLVFEHVDQDLRTYLDKAPPPGLPAETIKDLMRQFLRGLDFLHANCIVHRDLKPENILVTSGGTVKLADFGLARIYSYQMALTPVVVTLWYRAPEVLLQSTYATPVDMWSVGCIFAEMFRRKPLFCGNSEADQLGKIFDLIGLPPEDDWPRDVSLPRGAFPPRGPRPVQSVVPEMEESGAQLLLEMLTFNPHKRISAFRALQHSYLHKDEGNPE [R24C]	with no effect

Variants of: B2
Details: with ccnd3_human CCND3, P30281
Chain of ccnd3_human CCND3, P30281 (P30281 whole entry): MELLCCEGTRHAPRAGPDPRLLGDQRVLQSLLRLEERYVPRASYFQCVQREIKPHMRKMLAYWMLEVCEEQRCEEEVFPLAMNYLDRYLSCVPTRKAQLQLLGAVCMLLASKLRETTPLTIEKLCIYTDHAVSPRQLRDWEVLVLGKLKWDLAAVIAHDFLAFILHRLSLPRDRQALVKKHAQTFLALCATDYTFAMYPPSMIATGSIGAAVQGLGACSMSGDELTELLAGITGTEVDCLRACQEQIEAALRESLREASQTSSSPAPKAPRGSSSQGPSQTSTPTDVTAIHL

Variant	effect of a mutation on the interaction
MATSRYEPVAEIGVGAYGTVYKARDPHSGHFVALKSVRVPNGGGGGGGLPINTVREVALLRRLEAFEHPNVVRLMDVCATSRTDREIKVTLVFEHVDQDLRTYLDKAPPPGLPAETIKDLMRQFLRGLDFLHANCIVHRDLKPENILVTSGGTVKLADFGLARIYSYQMALTPVVVTLWYRAPEVLLQSTYATPVDMWSVGCIFAEMFRRKPLFCGNSEADQLGKIFDLIGLPPEDDWPRDVSLPRGAFPPRGPRPVQSVVPEMEESGAQLLLEMLTFNPHKRISAFRALQHSYLHKDEGNPE [S52N]	with no effect
MATSRYEPVAEIGVGAYGTVYKACDPHSGHFVALKSVRVPNGGGGGGGLPISTVREVALLRRLEAFEHPNVVRLMDVCATSRTDREIKVTLVFEHVDQDLRTYLDKAPPPGLPAETIKDLMRQFLRGLDFLHANCIVHRDLKPENILVTSGGTVKLADFGLARIYSYQMALTPVVVTLWYRAPEVLLQSTYATPVDMWSVGCIFAEMFRRKPLFCGNSEADQLGKIFDLIGLPPEDDWPRDVSLPRGAFPPRGPRPVQSVVPEMEESGAQLLLEMLTFNPHKRISAFRALQHSYLHKDEGNPE [R24C]	with no effect

Variants of: B2
Details: with ccnd2_human CCND2, P30279
Chain of ccnd2_human CCND2, P30279 (P30279 whole entry): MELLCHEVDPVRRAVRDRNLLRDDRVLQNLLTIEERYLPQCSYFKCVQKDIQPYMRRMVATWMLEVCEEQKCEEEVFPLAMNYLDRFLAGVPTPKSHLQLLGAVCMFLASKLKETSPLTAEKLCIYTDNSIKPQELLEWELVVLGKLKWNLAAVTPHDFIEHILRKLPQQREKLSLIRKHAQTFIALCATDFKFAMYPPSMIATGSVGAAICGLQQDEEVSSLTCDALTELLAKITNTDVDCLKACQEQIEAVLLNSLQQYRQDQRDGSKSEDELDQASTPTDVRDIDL

Variant	effect of a mutation on the interaction
MATSRYEPVAEIGVGAYGTVYKARDPHSGHFVALKSVRVPNGGGGGGGLPINTVREVALLRRLEAFEHPNVVRLMDVCATSRTDREIKVTLVFEHVDQDLRTYLDKAPPPGLPAETIKDLMRQFLRGLDFLHANCIVHRDLKPENILVTSGGTVKLADFGLARIYSYQMALTPVVVTLWYRAPEVLLQSTYATPVDMWSVGCIFAEMFRRKPLFCGNSEADQLGKIFDLIGLPPEDDWPRDVSLPRGAFPPRGPRPVQSVVPEMEESGAQLLLEMLTFNPHKRISAFRALQHSYLHKDEGNPE [S52N]	with no effect
MATSRYEPVAEIGVGAYGTVYKACDPHSGHFVALKSVRVPNGGGGGGGLPISTVREVALLRRLEAFEHPNVVRLMDVCATSRTDREIKVTLVFEHVDQDLRTYLDKAPPPGLPAETIKDLMRQFLRGLDFLHANCIVHRDLKPENILVTSGGTVKLADFGLARIYSYQMALTPVVVTLWYRAPEVLLQSTYATPVDMWSVGCIFAEMFRRKPLFCGNSEADQLGKIFDLIGLPPEDDWPRDVSLPRGAFPPRGPRPVQSVVPEMEESGAQLLLEMLTFNPHKRISAFRALQHSYLHKDEGNPE [R24C]	with no effect

Variants of: B2
Details: with cdn2b_human CDKN2B

Variant	effect of a mutation on the interaction
MATSRYEPVAEIGVGAYGTVYKARDPHSGHFVALKSVRVPNGGGGGGGLPINTVREVALLRRLEAFEHPNVVRLMDVCATSRTDREIKVTLVFEHVDQDLRTYLDKAPPPGLPAETIKDLMRQFLRGLDFLHANCIVHRDLKPENILVTSGGTVKLADFGLARIYSYQMALTPVVVTLWYRAPEVLLQSTYATPVDMWSVGCIFAEMFRRKPLFCGNSEADQLGKIFDLIGLPPEDDWPRDVSLPRGAFPPRGPRPVQSVVPEMEESGAQLLLEMLTFNPHKRISAFRALQHSYLHKDEGNPE [S52N]	with no effect
MATSRYEPVAEIGVGAYGTVYKACDPHSGHFVALKSVRVPNGGGGGGGLPISTVREVALLRRLEAFEHPNVVRLMDVCATSRTDREIKVTLVFEHVDQDLRTYLDKAPPPGLPAETIKDLMRQFLRGLDFLHANCIVHRDLKPENILVTSGGTVKLADFGLARIYSYQMALTPVVVTLWYRAPEVLLQSTYATPVDMWSVGCIFAEMFRRKPLFCGNSEADQLGKIFDLIGLPPEDDWPRDVSLPRGAFPPRGPRPVQSVVPEMEESGAQLLLEMLTFNPHKRISAFRALQHSYLHKDEGNPE [R24C]	with no effect

Variants of: B2
Details: with cdn2c_human CDKN2C

Variant	effect of a mutation on the interaction
MATSRYEPVAEIGVGAYGTVYKARDPHSGHFVALKSVRVPNGGGGGGGLPINTVREVALLRRLEAFEHPNVVRLMDVCATSRTDREIKVTLVFEHVDQDLRTYLDKAPPPGLPAETIKDLMRQFLRGLDFLHANCIVHRDLKPENILVTSGGTVKLADFGLARIYSYQMALTPVVVTLWYRAPEVLLQSTYATPVDMWSVGCIFAEMFRRKPLFCGNSEADQLGKIFDLIGLPPEDDWPRDVSLPRGAFPPRGPRPVQSVVPEMEESGAQLLLEMLTFNPHKRISAFRALQHSYLHKDEGNPE [S52N]	with no effect
MATSRYEPVAEIGVGAYGTVYKACDPHSGHFVALKSVRVPNGGGGGGGLPISTVREVALLRRLEAFEHPNVVRLMDVCATSRTDREIKVTLVFEHVDQDLRTYLDKAPPPGLPAETIKDLMRQFLRGLDFLHANCIVHRDLKPENILVTSGGTVKLADFGLARIYSYQMALTPVVVTLWYRAPEVLLQSTYATPVDMWSVGCIFAEMFRRKPLFCGNSEADQLGKIFDLIGLPPEDDWPRDVSLPRGAFPPRGPRPVQSVVPEMEESGAQLLLEMLTFNPHKRISAFRALQHSYLHKDEGNPE [R24C]	disrupting interaction strength

Variants of: B2
Details: with ccnd2_human CCND2, P30279
Remark: another data set of the same source

Variant	effect of a mutation on the interaction
MATSRYEPVAEIGVGAYGTVYKACDPHSGHFVALKSVRVPNGGGGGGGLPISTVREVALLRRLEAFEHPNVVRLMDVCATSRTDREIKVTLVFEHVDQDLRTYLDKAPPPGLPAETIKDLMRQFLRGLDFLHANCIVHRDLKPENILVTSGGTVKLADFGLARIYSYQMALTPVVVTLWYRAPEVLLQSTYATPVDMWSVGCIFAEMFRRKPLFCGNSEADQLGKIFDLIGLPPEDDWPRDVSLPRGAFPPRGPRPVQSVVPEMEESGAQLLLEMLTFNPHKRISAFRALQHSYLHKDEGNPE [R24C]	disrupting interaction strength
